Test results: patent publication US20230140200A1 (TRUSTEES OF COLUMBIA UNIVERSITY IN THE CITY OF NEW YORK, published 2023)

Legend:
mouse TfR1 protein = biological target: T1, mouse TfR1 protein (mouse, UniProt Q62351 1-763); test: immunofluorescence on normal mouse liver frozen tissue sections
T1 construct: whole, on cells; Endogenous protein in mouse tissue sections

[1] = biological target: T2, human transferrin receptor protein 1 (TfR1) (human, UniProt P02786 1-760); test: immunoprecipitation with 3F3-FMA from HT-1080 cell lysate and mass spectrometry; staining lost after siRNA knockdown of TfR1
T2 construct: whole, on cells; Endogenous full-length protein of human cell lines; no recombinant construct was used; also called transferrin receptor 1; CD71
Method: The beads were used for mass spectrometry.
Trypsin digestion was performed overnight at 37° C. Supernatants were collected and dried down in a speed-vac, and peptides were dissolved in a solution containing 3% acetonitrile and 0.1% formic acid. Peptides were desalted with C18 disk-packed stage-tips. Desalted peptides were injected onto an EASY-Spray PepMap RSLC C18 50 cm×75 μm column (Thermo Scientific), which was coupled to the Orbitrap Fusion Tribrid mass spectrometer (Thermo Scientific). Peptides were eluted with a non-linear 110 min gradient of 5-30% buffer B (0.1% (v/v) formic acid, 100% acetonitrile) at a flow rate of 250 nl/min. The column temperature was maintained at a constant 50° C. during all experiments. Thermo Scientific™ Orbitrap Fusion™ Tribrid™ mass spectrometer was used for peptide MS/MS analysis. Survey scans of peptide precursors were performed from 400 to 1575 m/z at 120K FWHM resolution (at 200 m/z) with a 2×10⁵ ion count target and a maximum injection time of 50 ms. […] CID fragmentation was applied with 35% collision energy and resulting fragments were detected using the rapid scan rate in the ion trap. […]
The antigen of 3F3-FMA was identified using immunoprecipitation and mass spectrometry. […] Then magnetic beads were added and washed, and bead-immobilized proteins were analyzed by mass spectrometry. […]

T1 sequence (Q62351 whole entry): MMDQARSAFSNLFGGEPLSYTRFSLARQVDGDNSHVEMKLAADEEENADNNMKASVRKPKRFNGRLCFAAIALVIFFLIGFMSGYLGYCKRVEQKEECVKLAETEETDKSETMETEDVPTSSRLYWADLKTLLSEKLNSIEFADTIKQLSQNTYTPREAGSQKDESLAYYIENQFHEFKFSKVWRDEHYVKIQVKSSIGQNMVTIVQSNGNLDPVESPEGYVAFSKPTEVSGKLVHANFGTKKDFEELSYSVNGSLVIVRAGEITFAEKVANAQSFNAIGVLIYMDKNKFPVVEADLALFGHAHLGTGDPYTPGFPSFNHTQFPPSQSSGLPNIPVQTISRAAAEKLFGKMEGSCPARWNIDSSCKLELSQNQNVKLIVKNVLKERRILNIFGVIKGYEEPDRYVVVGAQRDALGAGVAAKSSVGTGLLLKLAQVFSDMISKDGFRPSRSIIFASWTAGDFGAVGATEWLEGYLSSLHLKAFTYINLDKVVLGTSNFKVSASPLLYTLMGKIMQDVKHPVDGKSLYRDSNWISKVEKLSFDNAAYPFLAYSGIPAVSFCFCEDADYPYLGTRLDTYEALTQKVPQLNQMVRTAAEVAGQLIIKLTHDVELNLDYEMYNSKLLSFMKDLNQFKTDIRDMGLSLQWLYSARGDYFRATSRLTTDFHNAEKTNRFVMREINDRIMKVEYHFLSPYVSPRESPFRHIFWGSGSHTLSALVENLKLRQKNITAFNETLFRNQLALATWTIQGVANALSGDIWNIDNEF
T2 sequence (P02786 whole entry): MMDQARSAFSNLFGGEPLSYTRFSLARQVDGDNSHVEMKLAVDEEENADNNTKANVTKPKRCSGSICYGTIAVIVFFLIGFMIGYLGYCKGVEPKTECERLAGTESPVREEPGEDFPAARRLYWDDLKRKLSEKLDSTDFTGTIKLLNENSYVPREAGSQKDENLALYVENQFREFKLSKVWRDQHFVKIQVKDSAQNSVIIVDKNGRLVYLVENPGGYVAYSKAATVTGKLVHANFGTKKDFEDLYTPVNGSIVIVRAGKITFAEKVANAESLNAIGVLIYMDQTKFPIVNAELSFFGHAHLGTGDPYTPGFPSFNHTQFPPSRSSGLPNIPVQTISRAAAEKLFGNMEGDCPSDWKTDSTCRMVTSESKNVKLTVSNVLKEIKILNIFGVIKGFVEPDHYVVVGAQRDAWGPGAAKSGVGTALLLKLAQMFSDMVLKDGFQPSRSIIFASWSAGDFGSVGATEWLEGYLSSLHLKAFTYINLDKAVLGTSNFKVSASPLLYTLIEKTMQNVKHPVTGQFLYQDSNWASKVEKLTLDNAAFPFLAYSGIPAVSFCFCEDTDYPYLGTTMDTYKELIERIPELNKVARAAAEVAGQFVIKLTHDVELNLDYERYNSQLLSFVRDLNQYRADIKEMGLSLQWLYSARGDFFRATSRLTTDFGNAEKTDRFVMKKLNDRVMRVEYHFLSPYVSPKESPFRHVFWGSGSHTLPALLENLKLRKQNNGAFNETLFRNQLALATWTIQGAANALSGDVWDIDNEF

binding result (mouse TfR1 protein): binds | binding result [1]: binds
B1: 3F3 anti-Ferroptotic Membrane Antibody (3F3-FMA) (antibody, V domains shown)
VH: EVLLQQSGTELVRPGALVKLSCKASGFNIQDLYIHWVKQRPEQGLEWIGWIDPETDNTIYDPKFQGKASITADTSSNTAYLQLSSLTSEDTAMYYCSTGLLQWYFDVWGAGTAVTVSS
VL: DIVMTQSPSSLAMSIGQKVTMRCKSSQSLLNSYNQKNCLAWYQQKPGQSPKLLLYFVSTRESGVPDRFIGSGSGTDFTLTISSVQAEDLADYFCQQHYSTPLTFGAGTKLELK
notes: the entries 1 and 2 should match these; also called mAb 3F3 FMA; clone FH3F3
